The results in this text go back to IntAct's records for PubMed 22927794.

To fix the notation:
B1: Long arms of the bivalent protein 1 (Caenorhabditis elegans), Q17604 (parent)
chain: MVSHKKNDRPRPLWILKIHKRLSLFEFKRYATGIGKDDGQDISWVLKGNAKNNVYQVTVETMENCETDECKKVIWVPDELAESTGTMFEDFKEDQPQESVSSISNNEANWGSSVNELDENYEKMQKEETFDPYDSDSDTSEDSDFDEDFEDSDKTMCSGQS

Variants of B1 are the subject of one test. The conditions noted are these: with glc7b_caeel gsp-2, P48727.
Sequence of glc7b_caeel gsp-2, P48727 (P48727 whole entry): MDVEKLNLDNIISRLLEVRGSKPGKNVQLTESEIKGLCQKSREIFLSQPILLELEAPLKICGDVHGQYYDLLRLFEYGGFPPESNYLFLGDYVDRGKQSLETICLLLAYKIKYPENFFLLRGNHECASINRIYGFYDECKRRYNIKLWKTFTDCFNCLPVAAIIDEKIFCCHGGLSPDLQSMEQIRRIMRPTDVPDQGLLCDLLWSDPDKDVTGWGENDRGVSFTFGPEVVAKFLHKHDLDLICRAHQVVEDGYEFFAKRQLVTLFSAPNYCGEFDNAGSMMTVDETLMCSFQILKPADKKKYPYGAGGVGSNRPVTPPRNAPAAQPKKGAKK
As to V73A;W75A, the “effect of a mutation on the interaction” value was “increasing interaction strength”.

A further test covers variants of B1. The settings on record: with glc7a_caeel gsp-1, Q27497.
Sequence of glc7a_caeel gsp-1, Q27497 (Q27497 whole entry): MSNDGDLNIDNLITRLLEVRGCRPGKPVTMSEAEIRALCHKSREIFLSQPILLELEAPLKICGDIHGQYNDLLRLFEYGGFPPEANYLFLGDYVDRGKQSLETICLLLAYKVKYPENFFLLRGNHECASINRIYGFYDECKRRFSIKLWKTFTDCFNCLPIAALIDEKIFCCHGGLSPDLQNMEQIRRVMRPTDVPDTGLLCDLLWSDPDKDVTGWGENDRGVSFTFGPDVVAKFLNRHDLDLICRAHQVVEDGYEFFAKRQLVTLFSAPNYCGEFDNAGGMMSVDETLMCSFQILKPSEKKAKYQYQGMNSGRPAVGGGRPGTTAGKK
Regarding V73A;W75A, the “effect of a mutation on the interaction” value is given as “decreasing interaction strength”.
